Where a chain is given by its changes, count along the chain named.
B1: M103205H795-MY176 / M103202L889-SK1 (antibody, human IgG1, kappa)
heavy: QVTLKESGPVLVKPTETLTLTCTVSGIDLSHDDISWVRQAPGKGLEWVGIISYAGSTYYASWAKGRLTISKDTSKNQVVLTMTNMDPVDTATYYCARGVPAYSHGGDLWGQGTLVTVSSASTKGPSVFPLAPSSKSTSGGTAALGCLVKDYFPEPVTVSWNSGALTSGVHTFPAVLQSSGLYSLSSVVTVPSSSLGTQTYICNVNHKPSNTKVDKKVEPKSCDKTHTCPPCPAPELLNGPSVFLFPPKPKDTLMISRTPEVTCVVVDVSEEDPEVKFNWYVDGVEVHNAKTKPREEQYNSTYRVVSVLTVLHQDWLNGKEYKCKVSNKALPAPIEKTISKAKGQPREPQVYTLPPSREEMTKNQVSLTCLVKGFYPSDIAVEWESNGQPENNYKTTPLVLDSDGSFFLYSKLTVDKSRWQQGNVFSCSVMHEALHNHYTQKSLSLSP
light: DIVMTQSPATLSLSPGERATLSCTSSQSVYHANWLSWFQQKPGQPPKLLIYWASTLAYGVPSRFSGSGSGTDFTLTISSLQPEDAATYYCAGGYGGGRYAFGQGTKVEIKRTVAAPSVFIFPPSDEQLKSGTASVVCLLNNFYPREAKVQWKVDNALQSGNSQESVTEQDSKDSTYSLSSTLTLSKADYEKHKVYACEVTHQGLSSPVTKSFNRGEC
notes: Position 396 variant derived from MY052, expressed with M103202L889-SK1 as light chain
B2: M103205H795-MY182 / M103202L889-SK1 (antibody, human IgG1, kappa)
heavy: B1 heavy with L398V
light: B1 light
notes: as for B1
B3: M103205H795-MY179 / M103202L889-SK1 (antibody, human IgG1, kappa)
heavy: B1 heavy with L398R
light: B1 light
notes: as for B1
B4: M103205H795-MY180 / M103202L889-SK1 (antibody, human IgG1, kappa)
heavy: B1 heavy with L398S
light: B1 light
notes: as for B1
B5: M103205H795-MY184 / M103202L889-SK1 (antibody, human IgG1, kappa)
heavy: B1 heavy with L398Y
light: B1 light
notes: as for B1
B6: M103205H795-MY178 / M103202L889-SK1 (antibody, human IgG1, kappa)
heavy: B1 heavy with L398Q
light: B1 light
notes: as for B1
B7: M103205H795-MY183 / M103202L889-SK1 (antibody, human IgG1, kappa)
heavy: B1 heavy with L398W
light: B1 light
notes: as for B1
B8: M103205H795-MY181 / M103202L889-SK1 (antibody, human IgG1, kappa)
heavy: B1 heavy with L398T
light: B1 light
notes: as for B1
B9: M103205H795-MY177 / M103202L889-SK1 (antibody, human IgG1, kappa)
heavy: B1 heavy with L398N
light: B1 light
notes: as for B1

What was measured:
[1] = biological target: T1, cynomolgus monkey FcγRIIa1 extracellular domain with C-terminal His-tag (cynomolgus monkey); assay: SPR (Biacore), antibody captured on chip, FcgR extracellular domain as analyte, 25 C
T1 construct: Expressed in FreeStyle 293 cells and purified; also called cyno FcγRIIa1; cynoFcgRIIa1; not shown: C-terminal His-tag
T1 chain: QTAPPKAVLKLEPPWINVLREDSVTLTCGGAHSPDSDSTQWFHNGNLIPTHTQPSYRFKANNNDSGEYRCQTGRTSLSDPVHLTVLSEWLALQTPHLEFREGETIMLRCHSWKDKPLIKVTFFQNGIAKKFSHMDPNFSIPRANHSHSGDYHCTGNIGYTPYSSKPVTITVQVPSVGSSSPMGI

[2] = biological target: T2, cynomolgus monkey FcγRIIb extracellular domain with C-terminal His-tag (cynomolgus monkey); assay: as above
T2 construct: Expressed in FreeStyle 293 cells and purified; also called cyno FcγRIIb; cynoFcγRIIb; not shown: C-terminal His-tag
T2 chain: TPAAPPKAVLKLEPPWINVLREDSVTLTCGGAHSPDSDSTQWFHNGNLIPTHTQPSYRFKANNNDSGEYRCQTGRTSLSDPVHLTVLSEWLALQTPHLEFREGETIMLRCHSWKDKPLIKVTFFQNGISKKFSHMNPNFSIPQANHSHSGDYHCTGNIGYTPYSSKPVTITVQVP

[3] = biological target: T3, cynomolgus monkey FcγRIIa2 extracellular domain with C-terminal His-tag (cynomolgus monkey); assay: as above
T3 construct: Expressed in FreeStyle 293 cells and purified; also called cyno FcγRIIa2; cynoFcgRIIa2; not shown: C-terminal His-tag
T3 chain: T1 chain with P95T, T121A, I127K, A128S, K130N, D135N, R142Q

[4] = biological target: T4, human FcγRIIaH extracellular domain with C-terminal His-tag (human, UniProt P12318 34-217); assay: as above
T4 construct: Expressed in FreeStyle 293 cells and purified; also called human FcγRIIa (type H); FcgRIIaH; not shown: C-terminal His-tag
T4 sequence: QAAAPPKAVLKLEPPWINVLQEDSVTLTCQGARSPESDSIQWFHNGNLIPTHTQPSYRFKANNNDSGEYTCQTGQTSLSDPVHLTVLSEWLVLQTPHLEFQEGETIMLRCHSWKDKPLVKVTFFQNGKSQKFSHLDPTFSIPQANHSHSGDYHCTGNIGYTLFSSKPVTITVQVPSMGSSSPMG

[5] = biological target: T5, human FcγRIIb extracellular domain with C-terminal His-tag (human, UniProt P31994 43-217); assay: as above
T5 construct: Expressed in FreeStyle 293 cells and purified; also called humanFcgRIIb; not shown: C-terminal His-tag
T5 sequence: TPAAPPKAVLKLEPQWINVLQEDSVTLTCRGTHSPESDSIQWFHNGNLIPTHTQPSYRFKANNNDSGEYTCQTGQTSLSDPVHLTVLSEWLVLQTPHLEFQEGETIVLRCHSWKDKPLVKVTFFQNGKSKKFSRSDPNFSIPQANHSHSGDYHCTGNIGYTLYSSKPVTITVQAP

[6] = biological target: T6, cynomolgus monkey FcγRIIIaS extracellular domain with C-terminal His-tag (cynomolgus monkey, UniProt Q8SPW2 21-206 at identity 1.00)); assay: as above
T6 construct: Expressed in FreeStyle 293 cells and purified; also called cyno FcγRIIIaS; cynoFcγRIIIaS; not shown: C-terminal His-tag
T6 chain: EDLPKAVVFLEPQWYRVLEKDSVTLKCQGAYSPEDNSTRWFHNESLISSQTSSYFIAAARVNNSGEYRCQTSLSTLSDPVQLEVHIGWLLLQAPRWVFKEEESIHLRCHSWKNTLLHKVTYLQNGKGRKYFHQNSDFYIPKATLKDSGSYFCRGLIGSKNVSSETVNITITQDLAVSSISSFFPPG

[7] = biological target: T7, cynomolgus monkey FcγRIIa3 extracellular domain with C-terminal His-tag (cynomolgus monkey); assay: as above
T7 construct: Expressed in FreeStyle 293 cells and purified; also called cyno FcγRIIa3; cynoFcgRIIa3; not shown: C-terminal His-tag
T7 chain: T1 chain with P95T, T121A, A128S, H133P, D135N

[8] = biological target: T6, cynomolgus monkey FcγRIIIaS …; assay: SPR (Biacore); KD of SG1 divided by KD of the variant for this FcgR;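 also: relative to parent M103205H795-SG1 carrying the SG1 human heavy chain constant region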

Row | Binder | Kd [1] [nM] | Kd [2] [nM] | Kd [3] [nM] | Kd [4] [nM] | Kd [5] [nM] | Kd [6] [nM] | Kd [7] [nM] | KD fold (SG1 = 1) [8] [fold]
1 | B1 | 1300 | 620 | 1400 | 700 | 7000 | 2700 | 5000 | 0.16
2 | B2 | 2100 | 960 | 2200 | 1300 | 1200 | 3500 | 7800 | 0.1
3 | B3 | 1900 | 980 | 2000 | 11000 | 12000 | 2700 | 7900 | 0.13
4 | B4 | 2600 | 1300 | 2700 | 1700 | 19000 | 3100 | 12000 | 0.12
5 | B5 | 1900 | 980 | 2000 | 1100 | 1100 | 3300 | 8400 | 0.11
6 | B6 | 2000 | 950 | 2100 | 1200 | 13000 | 3000 | 8700 | 0.12
7 | B7 | 2100 | 970 | 2000 | 1200 | 1100 | 3500 | 8400 | 0.1
8 | B8 | 2300 | 1000 | 2300 | 1300 | 14000 | 4100 | 9200 | 0.09
9 | B9 | 1900 | 830 | 1800 | 10000 | 11000 | 2900 | 8100 | 0.12

From patent US20200317768A1 (published 2020)
